Key:
[1] = molecular target: FcRn (human) (UniProt P55899); experiment: SPR; pH 6.0
[2] = molecular target: CD32b(Y163) (UniProt P31994); experiment: SPR
Sequence of CD32b(Y163) (P31994 43-217): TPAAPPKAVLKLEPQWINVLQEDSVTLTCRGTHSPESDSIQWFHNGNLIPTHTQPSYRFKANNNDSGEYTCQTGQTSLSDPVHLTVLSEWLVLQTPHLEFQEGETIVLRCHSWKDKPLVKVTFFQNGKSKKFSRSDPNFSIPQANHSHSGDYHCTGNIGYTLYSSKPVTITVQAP

Sequence of FcRn (human) (P55899 24-297): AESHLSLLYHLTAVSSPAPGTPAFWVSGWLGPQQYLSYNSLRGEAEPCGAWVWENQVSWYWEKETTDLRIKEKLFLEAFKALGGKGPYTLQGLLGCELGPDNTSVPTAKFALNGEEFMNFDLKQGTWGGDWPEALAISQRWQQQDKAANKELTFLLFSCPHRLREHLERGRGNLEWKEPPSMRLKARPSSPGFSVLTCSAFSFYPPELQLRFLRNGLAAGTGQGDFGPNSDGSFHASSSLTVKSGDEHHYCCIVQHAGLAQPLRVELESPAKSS

Kd [1]: 3700 nM
Kd [2]: 1700 nM
Substance: Herceptin WT

— patent US20150284470A1
